Experimental data reported in patent US12144843B2, “Methods and compositions for modulating myofibroblast activities” (THE REGENTS OF THE UNIVERSITY OF CALIFORNIA, priority 2011, dated 2024).
“Also recorded” adds a separate entry of the source.

Tests used:
[1] = test system: myofibroblasts; test: myofibroblast apoptosis; type: cell-based; settings: for myofibroblast apoptosis: N=6
Excerpt: N=6. *, P<0.05; **, P<0.05.
(§1) Taken together, FMOD not only promotes TGF-β1-induced myofibroblast differentiation and contractility, but also accelerates myofibroblast clearance—resulting in lack of myofibroblast persistence in remodeling stage of FMOD-treated wounds.

[2] = test system: adult rat skin wounds; test: scar formation and tensile strength of adult rat skin wounds; type: in vivo
Excerpt: as §1

[3] = test system: rat dermal fibroblast (RDF); test: western blotting and qRT-PCR of α-SMA expression in rat dermal fibroblasts; type: cell-based
Excerpt: Data are normalized to untreated RDFs at time 0 (dash lines). N=3. *, P<0.05.
(§2) Activity level of myofibroblast is related to the activity of fibromodulin. Fibromodulin can promote myofibroblast differentiation and apoptosis.

[4] = test system: adult rat wounds; test: PCR array assay of gene expression in adult rat wounds; type: in vivo; settings: for expression of α-SMA in wounds: FMOD-treated adult rat wounds
Excerpt: Gene expression is normalized to unwounded skin (dashed lines). N=9 wounds from 9 animals. **, P<0.05.
Gene expression is normalized to unwounded skin (dashed lines). N=9 wounds from 9 animals. **, P<0.05

[5] = test system: RDF; test: in vitro collagen gel contraction; type: cell-based, rat; settings: FMOD alone; N=6
Excerpt: as §2

[6] = test system: adult rat wounds; test: α-SMA-positive myofibroblasts in wounds; type: in vivo; settings: FMOD-treated wounds; day 14 post injury
Excerpt: as §1

[7] = test system: myofibroblast; test: immunofluorescent (IF) staining for α-SMA stress fibers, myofibroblast differentiation in vitro; type: cell-based; settings: FMOD combined with TGF-β1
Excerpt: Formation of stress fibers stained strongly for α-SMA are indicated by yellow arrows. Scale bar=100 μm.
as §2

In the case of “TGF-β1: transforming growth factor (TGF)-β1, myofibroblast differentiation inducing agent”, the “interleukin (IL)-1β-mediated apoptosis in myofibroblasts” value ([1]; effect of TGF-β1) is reported as “completely blocked”.

B1: FMOD: fibromodulin protein; an example is SEQ ID NO:1 (Genebank NM 002023) (protein, listed as Homo sapiens)
chain: WTSLLLLAGLFSLSQAQYEDDPHWWFHYLRSQQSTYYDPYDPYPYETYEPYPYGVDEGPAYTYGSPSPPDPRDCPQECDCPPNFPTAMYCDNRNLKYLPFVPSRMKYVYFQNNQITSIQEGVFDNATGLLWIALHGNQITSDKVGRKVFSKLRHLERLYLDHNNLTRMPGPLPRSLRELHLDHNQISRVPNNALEGLENLTALYLQHNEIQEVGSSMRGLRSLILLDLSYNHLRKVPDGLPSALEQLYMEHNNVYTVPDSYFRGAPKLLYVRLSHNSLTNNGLASNTFNSSSLLELDLSYNQLQKIPPVNTNLENLYLQGNRINEFSISSFCTVVDVVNFSKLQVLRLDGNEIKRSAMPADAPLCLRLASLIEI
For B1, the collagen architecture ([2]; adult rat primary closure wounds) was “more organized collagen architecture”, the scar size ([2]; adult rat skin wounds, doses □ 0.4 mg/ml, day 14 post injury, compared to control) was “significant smaller scar; also recorded: significantly reduces” and the tensile strength ([2]; adult rat wounds) was “stronger tensile strength; also recorded: increasing tensile strength in a dose dependent manner”. The “α-smooth muscle actin (α-SMA) expression” value ([3]; FMOD alone, western blotting and qRT-PCR, N=3) was “no significant effect”, the “TGF-β1-induced α-SMA expression” value ([3]; FMOD in the presence of TGF-β1, N=3) was “significantly enhances” and the “TGF-β1-induced α-SMA expression” value ([3]; FMOD in the presence of TGF-β1, N=3, listed as Fibromodulin) was “significantly promoted”. The “expression of α-SMA in wounds” value ([4]; early 3-day time-point) was “significantly upregulated”, the “expression of α-SMA in wounds” value ([4]; late 7- and 14-day time-points) was “reduced” and the IL-1β expression ([4]; day 3 and 7 adult rat wounds) was “significantly stimulated”. For the same molecule, the IL-10 expression ([4]; day 3 and 7 adult rat wounds, PCR array) was “significantly stimulated”, the “RDF contraction in collagen gel” value [5] was “minimal effects” and the α-SMA-positive myofibroblasts [6] was “diminished; also recorded: decreased”. For the same molecule, the “myofibroblast differentiation and contractility in vitro” value [7] was “significantly enhanced”, the myofibroblast apoptosis ([1]; FMOD alone) was “promoted myofibroblast apoptosis as effectively as IL-1β; also recorded: induces myofibroblast apoptosis as effectively as IL-10” and the myofibroblast apoptosis ([1]; in the presence of TGF-β1) was “promoted apoptosis even in the presence of TGF-1β”.
